# Test results from patent publication US6461867.
# B1: soluble H-2K^b (K^bsol), empty heterodimer of truncated K^b heavy chain and murine β-2 microglobulin (other)
# alpha: GPHSLRYFVTAVSRPGLGEPRYMEVGYVDDTEFVRFDSDAENPRYEPRARWMEQEGPEYWERETQKAKGNEQSFRVDLRTLLGYYNQSKGGSHTIQVISGCEVGSDGRLLRGYQQYAYDGCDYIALNEDLKTWTAADMAALITKHKWEQAGEAERLRAYLEGTCVEWLRRYLKNGNATLLRTDSPKAHVTHHSRPEDKVTLRCWALGFYPADITLTWQLNGEELIQDMELVETRPAGDGTFQKWASVVVPLGKEQYYTCHVYHQGLPEPLTLRW
# beta: IQKTPQIQVYSRHPPENGKPNILNCYVTQFHPPHIEIQMLKNGKKIPKVEMSDMSFSKDWSFYILAHTEFTPTETDTYACRVKHASMAEPKTVYWDRDM
# Molecular target: SEV-9 peptide (Sendai virus nucleoprotein 324-332) (Sendai virus)
binder,measurement,value
B1,Kd,2.7 nM
